The target in the assay is NRR-containing SynNotch receptor (Homo sapiens, UniProt P46531, chimera). In words: immunostaining of cells or tissue.
Chain of NRR-containing SynNotch receptor (P46531 whole entry, looked up, change not shown): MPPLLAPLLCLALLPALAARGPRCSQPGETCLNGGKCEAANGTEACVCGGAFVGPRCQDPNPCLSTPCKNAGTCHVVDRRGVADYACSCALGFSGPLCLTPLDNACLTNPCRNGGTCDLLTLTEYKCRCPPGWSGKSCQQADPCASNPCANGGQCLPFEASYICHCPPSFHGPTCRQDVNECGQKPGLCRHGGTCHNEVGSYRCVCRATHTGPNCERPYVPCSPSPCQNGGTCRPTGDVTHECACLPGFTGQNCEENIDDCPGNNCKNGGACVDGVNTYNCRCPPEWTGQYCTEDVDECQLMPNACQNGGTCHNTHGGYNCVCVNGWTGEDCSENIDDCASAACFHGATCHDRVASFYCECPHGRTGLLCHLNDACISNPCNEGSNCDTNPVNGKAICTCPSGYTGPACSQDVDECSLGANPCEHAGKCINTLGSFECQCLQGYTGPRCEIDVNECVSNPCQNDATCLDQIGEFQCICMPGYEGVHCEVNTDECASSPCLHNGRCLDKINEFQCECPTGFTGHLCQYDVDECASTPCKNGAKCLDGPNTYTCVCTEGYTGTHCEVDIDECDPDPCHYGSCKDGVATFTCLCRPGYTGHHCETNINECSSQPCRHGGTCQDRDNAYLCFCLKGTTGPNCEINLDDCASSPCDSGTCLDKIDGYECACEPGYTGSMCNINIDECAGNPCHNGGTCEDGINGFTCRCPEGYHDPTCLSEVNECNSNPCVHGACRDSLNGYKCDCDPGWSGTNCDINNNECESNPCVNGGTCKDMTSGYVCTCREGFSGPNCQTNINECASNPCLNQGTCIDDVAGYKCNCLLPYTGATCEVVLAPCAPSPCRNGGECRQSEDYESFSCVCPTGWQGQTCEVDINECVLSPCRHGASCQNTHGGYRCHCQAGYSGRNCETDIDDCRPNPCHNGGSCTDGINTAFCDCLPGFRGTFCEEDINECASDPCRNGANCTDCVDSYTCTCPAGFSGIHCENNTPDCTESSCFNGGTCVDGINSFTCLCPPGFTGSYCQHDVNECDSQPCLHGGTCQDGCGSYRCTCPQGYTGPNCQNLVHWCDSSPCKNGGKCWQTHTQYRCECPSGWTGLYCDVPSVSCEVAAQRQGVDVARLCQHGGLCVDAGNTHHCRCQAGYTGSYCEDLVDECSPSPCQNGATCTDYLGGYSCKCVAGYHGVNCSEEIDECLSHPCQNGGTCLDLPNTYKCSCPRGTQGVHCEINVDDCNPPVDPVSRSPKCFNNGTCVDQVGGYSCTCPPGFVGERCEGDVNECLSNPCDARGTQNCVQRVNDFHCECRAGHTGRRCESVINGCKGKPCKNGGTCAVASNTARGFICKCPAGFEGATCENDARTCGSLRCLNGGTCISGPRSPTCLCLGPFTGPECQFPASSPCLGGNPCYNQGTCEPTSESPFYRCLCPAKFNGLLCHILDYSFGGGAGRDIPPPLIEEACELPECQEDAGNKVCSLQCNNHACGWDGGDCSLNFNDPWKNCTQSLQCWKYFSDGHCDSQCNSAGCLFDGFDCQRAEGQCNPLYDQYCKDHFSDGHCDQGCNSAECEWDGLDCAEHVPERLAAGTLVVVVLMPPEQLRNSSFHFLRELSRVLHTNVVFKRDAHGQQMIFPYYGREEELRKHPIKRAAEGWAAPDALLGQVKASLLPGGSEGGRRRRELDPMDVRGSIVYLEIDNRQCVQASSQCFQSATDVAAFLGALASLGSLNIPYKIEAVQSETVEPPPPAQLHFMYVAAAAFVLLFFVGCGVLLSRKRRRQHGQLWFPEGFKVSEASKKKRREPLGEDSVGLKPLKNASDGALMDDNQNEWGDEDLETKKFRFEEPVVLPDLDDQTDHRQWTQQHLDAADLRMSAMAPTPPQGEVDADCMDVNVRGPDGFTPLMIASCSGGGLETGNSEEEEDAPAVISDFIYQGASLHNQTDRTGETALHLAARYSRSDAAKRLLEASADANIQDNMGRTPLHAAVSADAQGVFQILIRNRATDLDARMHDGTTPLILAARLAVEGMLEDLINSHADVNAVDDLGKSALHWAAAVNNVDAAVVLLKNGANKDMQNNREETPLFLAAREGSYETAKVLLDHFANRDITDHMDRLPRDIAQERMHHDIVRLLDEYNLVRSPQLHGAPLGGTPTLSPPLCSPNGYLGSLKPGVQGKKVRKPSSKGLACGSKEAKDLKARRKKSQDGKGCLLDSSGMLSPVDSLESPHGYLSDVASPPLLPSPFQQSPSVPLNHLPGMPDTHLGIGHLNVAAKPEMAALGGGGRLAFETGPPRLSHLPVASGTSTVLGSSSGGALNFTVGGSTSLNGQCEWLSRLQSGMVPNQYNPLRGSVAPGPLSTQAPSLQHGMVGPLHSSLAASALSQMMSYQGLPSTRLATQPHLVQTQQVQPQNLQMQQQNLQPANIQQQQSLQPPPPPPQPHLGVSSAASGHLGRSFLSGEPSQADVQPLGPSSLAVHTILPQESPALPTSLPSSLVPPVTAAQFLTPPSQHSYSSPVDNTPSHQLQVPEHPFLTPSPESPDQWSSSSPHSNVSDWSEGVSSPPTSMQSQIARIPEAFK

B1: soluble anti-NRR scFv (scFv, V domains shown)
VH: EVQLVESGGGLVQPGGSLRLSCAASGFTFSSYWIHWVRQAPGKGLEWVARINPPNRSNQYADSVKGRFTISADTSKNTAYLQMNSLRAEDTAVYYCARGSGFRWVMDYWGQGTLVTVSS
VL: DIQMTQSPSSLSASVGDRVTITCRASQDVSTAVAWYQQKPGKAPKLLIYSASFLYSGVPSRFSGSGSGTDFTLTISSLQPEDFATYYCQQFYTTPSTFGQGTKVEIK
For the molecule B1, the binding result was “binds”.

(Values after doi:10.1101/2022.05.01.490205 (bioRxiv, 2022).)
